In PMC4095729:
Numbering of substitutions follows the chain as printed.

B1: Humanized 3D6 version 1 (antibody, V domains shown)
VH: EVQLLESGGGLVQPGGSLRLSCAASGFTFSNYGMSWVRQAPGKGLEWVASIRSGGGRTYYSDNVKGRFTISRDNAKNSLYLQMNSLRAEDTALYYCVRYDHYSGSSDYWGQGTLVTVSS
VL: YVVMTQSPLSLPVTPGEPASISCKSSQSLLDSDGKTYLNWLLQKPGQSPQRLIYLVSKLDSGVPDRFSGSGSGTDFTLKISRVEAEDVGVYYCWQGTHFPRTFGQGTKVEIK
B2: Bapineuzumab (humanized 3D6, version 2) (antibody, V domains shown)
VH: B1 VH with A75S, S78T, L93V
VL: B1 VL with Y1D

Target: biotinylated DAE10 peptide (Aβ1-10 conjugated to biotin at the carboxy-terminus)
Test: SPR; BIAcore; biotinylated DAE10 peptide (Aβ1-10) immobilised on streptavidin coated chips at low density (4 to 7 RU); whole antibodies injected in triplicate at 100 nM, 30 μl/minute; apparent rate constants, bivalent model, KD corrected for active concentration of antibody

Row | Binder | Kd [nM] | koff [s⁻¹] | kon [M⁻¹ s⁻¹]
1 | B1 | 2.1 | 0.000399 | 189000
2 | B2 | 2.8 | 0.000423 | 150000
